Results as given in publication PMC5058748, “ZNF224, Krüppel like zinc finger protein, induces cell growth and apoptosis-resistance by down-regulation of p21 and p53 via miR-663a”.
Substitutions are numbered along the chain they refer to.

B1: CAGCTTC hairpin oligo (dsDNA)
DNA 1: CCAAGAAGCTGAAAGGGAAAAACCCTTTCAGCTTCTTGG
DNA 2: CCAAGAAGCTGAAAGGGTTTTTCCCTTTCAGCTTCTTGG
B2: CAGCGTC hairpin oligo (dsDNA)
DNA 1: B1 DNA 1 with A7C, T33G
DNA 2: B1 DNA 2 with A7C, T33G
B3: GCAGCAA hairpin oligo (dsDNA)
DNA 1: CCAAGCAGCAAAAAGGGAAAAACCCTTTTTGCTGCTTGG
DNA 2: CCAAGCAGCAAAAAGGGTTTTTCCCTTTTTGCTGCTTGG

Molecular target: FLAG-ZNF224 (UniProt Q9NZL3 1-707)
Sequence (Q9NZL3 whole entry): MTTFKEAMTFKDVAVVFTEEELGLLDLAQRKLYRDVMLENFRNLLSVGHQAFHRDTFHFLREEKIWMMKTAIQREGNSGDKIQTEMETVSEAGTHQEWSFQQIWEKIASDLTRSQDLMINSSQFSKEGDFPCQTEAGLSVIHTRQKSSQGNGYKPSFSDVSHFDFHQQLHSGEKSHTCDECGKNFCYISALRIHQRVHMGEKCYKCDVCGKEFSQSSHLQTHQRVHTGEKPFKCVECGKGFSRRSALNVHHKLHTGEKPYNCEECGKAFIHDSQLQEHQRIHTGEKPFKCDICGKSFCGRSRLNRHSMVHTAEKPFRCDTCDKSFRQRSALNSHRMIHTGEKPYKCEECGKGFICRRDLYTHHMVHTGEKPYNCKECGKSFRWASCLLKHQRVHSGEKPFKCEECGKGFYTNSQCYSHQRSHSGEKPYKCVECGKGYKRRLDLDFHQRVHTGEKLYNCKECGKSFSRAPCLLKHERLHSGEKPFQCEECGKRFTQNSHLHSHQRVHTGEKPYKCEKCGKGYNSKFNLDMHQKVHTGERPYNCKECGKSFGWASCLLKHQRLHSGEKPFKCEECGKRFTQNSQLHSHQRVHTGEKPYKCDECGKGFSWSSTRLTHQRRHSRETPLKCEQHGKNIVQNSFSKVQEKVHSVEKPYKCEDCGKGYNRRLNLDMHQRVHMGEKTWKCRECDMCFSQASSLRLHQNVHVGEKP
Experiment: SPR; protein immobilized, oligo as analyte; SPR: 1x PBS, Reichert SR7500DC, CMDH chip, oligo 0-10 uM; pH and temperature not stated; ELISA buffer not in material
Details: protein: recombinant; tags: 3xFLAG; label: 5'-biotin (ELISA oligos); hairpin

Binder	Kd
B1	1250 ± 60 nM
B2	2000 ± 100 nM
B3	420 ± 30 nM
